Test results reported in patent publication US20250277032A1 (published 2025).

Target: human ILT3 (binding and competition assays, construct not stated) (human, UniProt Q8NHJ6 22-259)
Test: binding to hILT3 (relative binding)

Row | Binder | EC50
1 | h5E5-42 (antibody, V domains shown) VH: QVQLVQSGAEVKKPGASVKVSCKASGYSFSGFYIDWVKQPPGKGLEWIGYIFPSNGETSYNQKFKGRVTMTVDKSTSTVYMELSSLRSEDTAVYYCARQAFYYFDYWGQGTTVTVSS VL: not shown | 0.05 µg/mL
2 | h5E5-83 (antibody, V domains shown) VH: EVQLVQSGAEVKKPGASVKVSCKASGYSFSGFYIDWVKQPPGKGLEWIGYIFPSNGETSYNQKFKGRATMTVDKSTSTVYMELSSLRSEDTAVYYCARQAFYYFDYWGQGTTVTVSS VL: DIVMTQSPDSLAVSLGERATINCKSSQSLLSSSNQKNYLAWYQQKPGQAPRLLIYWASTRESGVPDRFAGSGSGTDFTLTISSLQAEDVAVYYCQQYYSYPLTFGQGTKLEIKR | 0.1 µg/mL
3 | h5E5-84 (antibody, V domains shown) VH: EVQLVQSGAEVKKPGASVKVSCKASGYSFSGFYIDWVKQPPGKGLEWIGYIFPSNGETSYNQKFKGRATMTVDKSTSTVYMELSSLRSEDTAVYYCARQAFYYFDYWGQGTTVTVSS VL: not shown | 0.08 µg/mL

The next lines start with the values.

Row | EC50 | Binder
4 | 0.09 µg/mL | h5E5-73 (antibody, V domains shown) VH: QVQLVQSGAEVKKPGASVKVSCKASGYSFTGFYIDWVKQPPGKGLEWIGYIFPSNGETSYNQKFKGRVTMTVDKSTSTVYMELSSLRSEDTAVYYCARQAFYYFDSWGQGTTVTVSS VL: DIVMTQSPDSLAVSLGERATINCKSSQSLLSSSNQKNYLAWYQQKPGQAPRLLIYWASTRESGVPDRFAGSGSGTDFTLTISSLQAEDVAVYYCQQYYSYPLTFGQGTKLEIKR
5 | 0.08 µg/mL | h5E5-22 (antibody, V domains shown) VH: EVQLVQSGAEVKKPGASVKVSCKASGYSFTGFYIDWVKQPPGKGLEWIGYIFPSNGETSYNQKFKGRATMTVDKSTSTVYMELSSLRSEDTAVYYCARQAFYYFDYWGQGTTVTVSS VL: not shown
